{"source": "patent US8415393B2", "about": "“Anti-bacterial drug targeting of genome maintenance interfaces” (Wisconsin Alumni Research Foundation, priority 2007, dated 2013)", "key": {"[1]": {"target": "T1, ExoI Arg148Ala variant (Escherichia coli, UniProt P04995 1-475)", "T1 construct": "also called R148A; Arg148 variant", "T1 sequence": "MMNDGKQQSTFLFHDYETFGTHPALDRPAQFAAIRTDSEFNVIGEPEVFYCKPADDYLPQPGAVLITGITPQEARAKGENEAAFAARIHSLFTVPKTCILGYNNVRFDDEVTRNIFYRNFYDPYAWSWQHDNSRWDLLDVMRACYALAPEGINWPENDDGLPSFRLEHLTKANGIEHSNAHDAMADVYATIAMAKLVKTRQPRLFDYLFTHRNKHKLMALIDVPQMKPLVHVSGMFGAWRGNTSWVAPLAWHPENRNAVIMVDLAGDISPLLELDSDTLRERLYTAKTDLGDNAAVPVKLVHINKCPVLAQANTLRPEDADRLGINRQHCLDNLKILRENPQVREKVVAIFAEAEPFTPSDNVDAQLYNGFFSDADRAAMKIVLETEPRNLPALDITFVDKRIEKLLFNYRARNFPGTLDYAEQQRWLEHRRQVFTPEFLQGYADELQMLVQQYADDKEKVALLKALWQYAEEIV", "assay": "fluorescence anisotropy equilibrium binding (Kd,app), ExoI variant titrated into fluorescein-labeled peptide"}, "[2]": {"target": "T2, ExoI Glu318Ala variant (Escherichia coli, UniProt P04995 1-475)", "T2 construct": "also called E318A; Glu318 variant", "T2 sequence": "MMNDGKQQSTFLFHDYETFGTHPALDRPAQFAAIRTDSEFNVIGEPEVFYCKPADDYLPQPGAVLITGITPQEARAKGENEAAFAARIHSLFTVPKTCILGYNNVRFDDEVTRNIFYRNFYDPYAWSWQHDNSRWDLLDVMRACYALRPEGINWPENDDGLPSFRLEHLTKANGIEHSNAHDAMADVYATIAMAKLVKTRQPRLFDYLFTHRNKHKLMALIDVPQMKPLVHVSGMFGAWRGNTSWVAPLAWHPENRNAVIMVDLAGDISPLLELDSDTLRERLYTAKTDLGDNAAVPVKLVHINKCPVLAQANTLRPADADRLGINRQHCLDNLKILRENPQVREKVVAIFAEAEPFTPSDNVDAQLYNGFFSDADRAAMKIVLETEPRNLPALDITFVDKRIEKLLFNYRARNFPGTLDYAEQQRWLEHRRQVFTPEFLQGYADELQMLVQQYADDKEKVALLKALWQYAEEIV", "assay": "fluorescence anisotropy equilibrium binding (Kd,app), ExoI variant titrated into fluorescein-labeled peptide"}, "[3]": {"target": "T3, ExoI Gln311Ala variant (Escherichia coli, UniProt P04995 1-475)", "T3 construct": "also called Q311A; Gln311 variant", "T3 sequence": "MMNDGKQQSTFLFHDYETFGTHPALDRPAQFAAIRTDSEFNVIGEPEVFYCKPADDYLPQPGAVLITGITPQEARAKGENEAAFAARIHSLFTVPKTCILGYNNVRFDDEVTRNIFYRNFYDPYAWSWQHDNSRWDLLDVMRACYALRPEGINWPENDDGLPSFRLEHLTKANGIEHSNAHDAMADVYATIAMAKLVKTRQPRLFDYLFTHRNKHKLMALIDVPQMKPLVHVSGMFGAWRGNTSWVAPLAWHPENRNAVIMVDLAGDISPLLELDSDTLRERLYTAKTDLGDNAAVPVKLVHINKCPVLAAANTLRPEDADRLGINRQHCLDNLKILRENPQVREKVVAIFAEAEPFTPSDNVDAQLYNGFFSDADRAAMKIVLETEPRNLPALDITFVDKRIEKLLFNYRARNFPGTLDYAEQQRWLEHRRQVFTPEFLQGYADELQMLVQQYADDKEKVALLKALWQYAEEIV", "assay": "fluorescence anisotropy equilibrium binding (Kd,app), ExoI variant titrated into fluorescein-labeled peptide"}, "[4]": {"target": "T4, E. coli Exonuclease I (Escherichia coli, UniProt P04995 1-475)", "T4 construct": "also called ExoI; Exol", "T4 sequence": "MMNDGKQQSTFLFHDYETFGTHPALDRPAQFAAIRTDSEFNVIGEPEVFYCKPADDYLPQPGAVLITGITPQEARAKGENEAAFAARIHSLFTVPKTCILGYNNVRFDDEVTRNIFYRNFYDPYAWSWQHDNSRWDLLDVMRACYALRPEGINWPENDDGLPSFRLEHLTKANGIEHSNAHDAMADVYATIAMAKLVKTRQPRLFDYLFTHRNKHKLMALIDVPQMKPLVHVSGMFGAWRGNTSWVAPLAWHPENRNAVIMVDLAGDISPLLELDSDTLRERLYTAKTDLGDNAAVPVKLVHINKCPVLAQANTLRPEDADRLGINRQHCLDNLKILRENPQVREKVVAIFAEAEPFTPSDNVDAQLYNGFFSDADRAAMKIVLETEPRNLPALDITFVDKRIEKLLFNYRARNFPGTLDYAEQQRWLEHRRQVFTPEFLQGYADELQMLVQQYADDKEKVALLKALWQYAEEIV", "assay": "fluorescence anisotropy equilibrium binding (Kd,app), ExoI titrated into fluorescein-labeled peptide"}}, "note": "Where no end group is shown, it is not given here. fluorescein = fluorescein moiety attached to the N-terminus of the peptide (N-terminal fluorescein label)"}
{"binder": "fluorescein-WMDFDDDIPF (also called F-SSB-Ct; F-WT)", "note": "[fluorescein-labeled SSB C-terminal peptide (fluorescein-WMDFDDDIPF)]", "values": [{"measurement": "Kd", "setting": "[1]", "value": "> 1000", "unit": "nM"}, {"measurement": "Kd", "setting": "[2]", "value": 80, "unit": "nM"}, {"measurement": "Kd", "setting": "[3]", "value": 304, "unit": "nM"}, {"measurement": "Kd", "setting": "[4]", "value": 136, "unit": "nM"}]}
